We go through 1 molecule from patent publication US20130143318A1 (BOARD OF REGENTS OF THE UNIVERSITY OF OKLAHOMA, published 2013).

One assay concerns the target T1, mouse Rrn3 (mouse, UniProt B2RS91 1-656, limits assumed).
T1 construct: Two-hybrid fusion partner not described; also called mRrn3
As to the kind of experiment: yeast two-hybrid.

In a further assay the target is T2, human Rrn3 (human, UniProt Q9NYV6 1-651, limits assumed).
T2 construct: Two-hybrid fusion partner not described; also called hRrn3
T2 sequence (Q9NYV6 whole entry, the tested form may be a part): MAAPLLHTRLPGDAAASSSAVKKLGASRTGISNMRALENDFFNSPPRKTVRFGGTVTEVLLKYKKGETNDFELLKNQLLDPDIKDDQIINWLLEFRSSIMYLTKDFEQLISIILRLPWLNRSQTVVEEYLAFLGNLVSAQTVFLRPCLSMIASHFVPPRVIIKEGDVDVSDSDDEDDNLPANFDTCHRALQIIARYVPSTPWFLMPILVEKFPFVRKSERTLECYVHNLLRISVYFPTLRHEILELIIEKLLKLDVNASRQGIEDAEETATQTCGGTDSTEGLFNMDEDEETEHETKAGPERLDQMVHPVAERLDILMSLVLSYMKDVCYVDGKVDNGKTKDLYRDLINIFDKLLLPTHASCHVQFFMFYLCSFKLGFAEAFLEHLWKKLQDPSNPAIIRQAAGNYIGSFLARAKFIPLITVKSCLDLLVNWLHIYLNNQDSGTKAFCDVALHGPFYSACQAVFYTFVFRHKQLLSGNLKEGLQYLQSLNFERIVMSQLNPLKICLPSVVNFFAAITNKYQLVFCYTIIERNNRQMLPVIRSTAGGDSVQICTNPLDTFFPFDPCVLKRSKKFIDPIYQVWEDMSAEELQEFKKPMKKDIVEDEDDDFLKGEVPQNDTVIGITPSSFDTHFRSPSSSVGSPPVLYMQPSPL
The assay can be described thus: yeast two-hybrid.

T1 sequence (B2RS91 whole entry, the tested form may be a part): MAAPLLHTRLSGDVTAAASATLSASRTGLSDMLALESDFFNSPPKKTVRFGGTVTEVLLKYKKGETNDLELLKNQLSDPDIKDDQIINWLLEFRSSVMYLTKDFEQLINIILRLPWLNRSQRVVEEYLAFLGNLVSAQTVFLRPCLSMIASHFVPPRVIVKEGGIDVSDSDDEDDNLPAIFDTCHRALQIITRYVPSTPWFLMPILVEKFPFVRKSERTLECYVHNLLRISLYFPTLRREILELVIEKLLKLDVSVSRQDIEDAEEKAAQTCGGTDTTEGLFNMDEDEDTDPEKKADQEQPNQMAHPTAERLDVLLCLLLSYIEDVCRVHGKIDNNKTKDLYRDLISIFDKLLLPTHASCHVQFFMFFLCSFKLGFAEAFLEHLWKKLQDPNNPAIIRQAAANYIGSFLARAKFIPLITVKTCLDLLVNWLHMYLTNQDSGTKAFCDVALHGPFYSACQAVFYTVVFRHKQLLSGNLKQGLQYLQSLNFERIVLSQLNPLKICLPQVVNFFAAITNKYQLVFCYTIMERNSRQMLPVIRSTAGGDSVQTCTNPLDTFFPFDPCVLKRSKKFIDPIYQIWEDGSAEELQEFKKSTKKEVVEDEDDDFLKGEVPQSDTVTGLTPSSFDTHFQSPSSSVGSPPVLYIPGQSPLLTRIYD

B1: mouse Rpa43 (43 kDa subunit of RNA polymerase I), wild type (other, UniProt Q78WZ7 1-330, looked up)
chain: MAAGSVESQRSQAASERPVAGQAGVLPCLELPSYAAACALVGSRYSCLVAAPHRRHIALSPRYLSRKRTGIREQLDAELLRYSESLLGVPIAYDNIRVVGELGDIYDDQGHIHLNIEADFVIFCPEPGQTLMGTVNKVSSSHIGCLVHGCFNASIPKPEQMSYEEWQTLEIHVGDELEFDVFRLDSDSAGVFCIRGKLSTTSLQLKHSAVSEDVAETVVEEVVEKTPKKKKKKKDKDTDTCGTVDSVTEVADVTDVTPQEETDIPCSDNVNDFFEEEPKKKKKKKKRHQEDQDPIFQASDSSGYQSDHNKKKKKRKHSEEANFESPKKRQ
notes: also called mRPA43; wild type Rpa43
Take B1: the binding result with mouse Rrn3 and with human Rrn3 was “binds” in each case.
